These results are taken from patent US20020103133.

The target in one series is T1, acetyl-P-L-G-L-L-S-L-Dox.
T1 chain: XLGLLSL

In the next series the target is T2, acetyl-P-L-G-L-L-A-L-Dox.
T2 chain: XLGLLAL

For a further series, the target named is T3, acetyl-P-L-G-L-Y-A-L-Dox.
T3 chain: XLGLYAL

The target of the next series is T4, acetyl-P-L-G-L-Y-L-Dox.
T4 chain: XLGLYL

The next series addresses T5, acetyl-P-L-G-L-L-Dox.
T5 chain: XLGLL

For another series, the target named is T6, acetyl-P-L-G-Hof-Y-L-Dox.
T6 chain: XLGXYL

For series [1], the target named is T7, acetyl-P-L-G-Hof-Orn-L-Dox.
T7 chain: XLGXXL

Another series concerns the target T8, acetyl-P-L-G-L-A-A-L-Dox.
T8 chain: XLGLAAL

Another series deals with T9, acetyl-G-P-L-G-L-Y-Dox.
T9 chain: XPLGLY

The target of the next series is T10, acetyl-G-P-L-G-L-A-L-Dox.
T10 chain: XPLGLAL

Series [2] addresses T11, succinyl-P-L-G-Hof-Y-L-Dox.
T11 chain: XLGXYL

The target in another series is T12, acetyl-G-P-L-G-L-L-Dox.
T12 chain: XPLGLL

A further series addresses T13, acetyl-P-L-G-L-A-L-Dox.
T13 chain: XLGLAL

B1: MMP-2 (protein)
chain: YNFFPRKPKWDKNQITYRIIGYTPDLDPETVDDAFARAFQVWSDVTPLRFSRIHDGEADIMINFGRWEHGDGYPFDGKDGLLAHAFAPGTGVGGDSHFDDDELWTLGEGQVVRVKYGNADGEYCKFPFLFNGKEYNSCTDTGRSDGFLWCSTTYNFEKDGKYGFCPHEALFTMGGNAEGQPCKFPFRFQGTSYDSCTTEGRTDGYRWCGTTEDYDRDKKYGFCPETAMSTVGGNSEGAPCVFPFTFLGNKYESCTSAGRSDGKMWCATTANYDDDRKWGFCPDQGYSLFLVAAHEFGHAMGLEHSQDPGALMAPIYTYTKNFRLSQDDIKGIQELYGASPDIDLGTGPTPTLGPVTPEICKQDIVFDGIAQIRGEIFFFKDRFIWRTVTPRDKPMGPLLVATFWPELPEKIDAVYEAPQEEKAVFFAGNEYWIYSASTLERGYPKPLTSLGLPPDVQRVDAAFNWSKNKKTYIFAGDKFWRYNEVKKKMDPGFPKLIADAWNAIPDNLDAVVDLQGGGHSYFFKGAYYLKLENQSLKSVKFGSIKSDWLGC
With B1, the kcat/Km (cleavage of conjugate, HPLC) was 1.03e+08 M⁻¹ s⁻¹ with acetyl-P-L-G-L-L-S-L-Dox; 6.3e+07 M⁻¹ s⁻¹ in the series with acetyl-P-L-G-L-L-A-L-Dox; 1.9e+08 M⁻¹ s⁻¹ in the series with acetyl-P-L-G-L-Y-A-L-Dox; 8.8e+07 M⁻¹ s⁻¹ with acetyl-P-L-G-L-Y-L-Dox; 1.8e+07 M⁻¹ s⁻¹ with acetyl-P-L-G-L-L-Dox; greater than 1.2e+08 M⁻¹ s⁻¹ with acetyl-P-L-G-Hof-Y-L-Dox. Further, the kcat/Km (cleavage of conjugate, HPLC) in series [1] was 1.36e+08 M⁻¹ s⁻¹; with acetyl-P-L-G-L-A-A-L-Dox it was 1.1e+08 M⁻¹ s⁻¹; in the series with acetyl-G-P-L-G-L-Y-Dox, 4e+07 M⁻¹ s⁻¹; in the series with acetyl-G-P-L-G-L-A-L-Dox it was 8.6e+07 M⁻¹ s⁻¹; in [2], greater than 1.2e+08 M⁻¹ s⁻¹; with acetyl-G-P-L-G-L-L-Dox, 3e+07 M⁻¹ s⁻¹. The kcat/Km (cleavage of conjugate, HPLC) in the series with acetyl-P-L-G-L-A-L-Dox stood at 5.3e+07 M⁻¹ s⁻¹.

B2: Neprilysin (protein)
chain: YDDGICKSSDCIKSAARLIQNMDATTEPCTDFFKYACGGWLKRNVIPETSSRYGNFDILRDELEVVLKDVLQEPKTEDIVAVQKAKALYRSCINESAIDSRGGEPLLKLLPDIYGWPVATENWEQKYGASWTAEKAIAQLNSKYGKKVLINLFVGTDDKNSVNHVIHIDQPRLGLPSRDYYECTGIYKEACTAYVDFMISVARLIRQEERLPIDENQLALEMNKVMELEKEIANATAKPEDRNDPMLLYNKMTLAQIQNNFSLEINGKPFSWLNFTNEIMSTVNISITNEEDVVVYAPEYLTKLKPILTKYSARDLQNLMSWRFIMDLVSSLSRTYKESRNAFRKALYGTTSETATWRRCANYVNGNMENAVGRLYVEAAFAGESKHVVEDLIAQIREVFIQTLDDLTWMDAETKKRAEEKALAIKERIGYPDDIVSNDNKLNNEYLELNYKEDEYFENIIQNLKFSQSKQLKKLREKVDKDEWISGAAVVNAFYSSGRNQIVFPAGILQPPFFSAQQSNSLNYGGIGMVIGHEITHGFDDNGRNFNKDGDLVDWWTQQSASNFKEQSQCMVYQYGNFSWDLAGGQHLNGINTLGENIADNGGLGQAYRAYQNYIKKNGEEKLLPGLDLNHKQLFFLNFAQVWCGTYRPEYAVNSIKTDVHSPGNFRIIGTLQNSAEFSEAFHCRKNSYMNPEKKCRVW
Turning to B2, the kcat/Km (cleavage of conjugate, HPLC) is 8.2e+07 M⁻¹ s⁻¹ with acetyl-P-L-G-L-L-S-L-Dox; 1e+08 M⁻¹ s⁻¹ with acetyl-P-L-G-L-L-A-L-Dox; 3.88e+08 M⁻¹ s⁻¹ with acetyl-P-L-G-L-Y-A-L-Dox; 2.2e+07 M⁻¹ s⁻¹ in the series with acetyl-P-L-G-L-Y-L-Dox; 2.2e+07 M⁻¹ s⁻¹ in the series with acetyl-P-L-G-L-L-Dox; less than 1e+06 M⁻¹ s⁻¹ with acetyl-P-L-G-Hof-Y-L-Dox. In addition, the kcat/Km (cleavage of conjugate, HPLC) was less than 1e+06 M⁻¹ s⁻¹ in series [1]; 1.2e+08 M⁻¹ s⁻¹ in the series with acetyl-P-L-G-L-A-A-L-Dox; 1.9e+07 M⁻¹ s⁻¹ with acetyl-G-P-L-G-L-Y-Dox; 4.2e+07 M⁻¹ s⁻¹ in the series with acetyl-G-P-L-G-L-A-L-Dox; less than 1e+06 M⁻¹ s⁻¹ in [2]; 2e+07 M⁻¹ s⁻¹ with acetyl-G-P-L-G-L-L-Dox. Besides, the kcat/Km (cleavage of conjugate, HPLC) with acetyl-P-L-G-L-A-L-Dox was 4.9e+07 M⁻¹ s⁻¹.
